Experimental data published in paper PMC7025878.

Target: GluD1△851 (rat GluD1 receptor truncated C-terminally at residue 851) (rat)
Assay: cryo-EM structure

Substance: GluD1△851 (rat GluD1 receptor truncated C-terminally at residue 851)
- stoichiometry N: 4
